Assay results as given in US20190062383A1.

What was measured:
human Kv1.1 (human) [1] = biological target: human Kv1.1 (human) (UniProt Q09470)
human Kv1.3 (human) [2] = biological target: human Kv1.3 (human) (UniProt P22001)
human Kv1.1 (human) [3] = biological target: human Kv1.1 (human) (UniProt Q09470); experiment: cell-based or functional assay
human Kv1.3 (human) [4] = biological target: human Kv1.3 (human) (UniProt P22001); experiment: cell-based or functional assay

human Kv1.1 (human), sequence (Q09470 whole entry): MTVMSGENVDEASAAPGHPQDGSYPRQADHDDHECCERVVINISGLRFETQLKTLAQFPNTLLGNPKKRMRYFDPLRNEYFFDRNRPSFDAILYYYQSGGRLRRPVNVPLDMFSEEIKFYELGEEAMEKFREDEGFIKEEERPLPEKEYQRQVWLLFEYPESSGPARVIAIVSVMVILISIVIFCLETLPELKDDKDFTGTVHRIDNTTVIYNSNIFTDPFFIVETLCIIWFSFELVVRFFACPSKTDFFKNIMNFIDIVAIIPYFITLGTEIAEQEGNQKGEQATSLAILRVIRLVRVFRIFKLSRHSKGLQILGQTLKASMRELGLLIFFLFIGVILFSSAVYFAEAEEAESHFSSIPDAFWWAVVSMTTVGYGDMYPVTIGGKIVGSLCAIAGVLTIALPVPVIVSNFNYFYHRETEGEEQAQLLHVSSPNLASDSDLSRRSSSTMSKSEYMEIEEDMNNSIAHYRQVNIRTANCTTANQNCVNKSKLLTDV
human Kv1.3 (human), sequence (P22001 whole entry): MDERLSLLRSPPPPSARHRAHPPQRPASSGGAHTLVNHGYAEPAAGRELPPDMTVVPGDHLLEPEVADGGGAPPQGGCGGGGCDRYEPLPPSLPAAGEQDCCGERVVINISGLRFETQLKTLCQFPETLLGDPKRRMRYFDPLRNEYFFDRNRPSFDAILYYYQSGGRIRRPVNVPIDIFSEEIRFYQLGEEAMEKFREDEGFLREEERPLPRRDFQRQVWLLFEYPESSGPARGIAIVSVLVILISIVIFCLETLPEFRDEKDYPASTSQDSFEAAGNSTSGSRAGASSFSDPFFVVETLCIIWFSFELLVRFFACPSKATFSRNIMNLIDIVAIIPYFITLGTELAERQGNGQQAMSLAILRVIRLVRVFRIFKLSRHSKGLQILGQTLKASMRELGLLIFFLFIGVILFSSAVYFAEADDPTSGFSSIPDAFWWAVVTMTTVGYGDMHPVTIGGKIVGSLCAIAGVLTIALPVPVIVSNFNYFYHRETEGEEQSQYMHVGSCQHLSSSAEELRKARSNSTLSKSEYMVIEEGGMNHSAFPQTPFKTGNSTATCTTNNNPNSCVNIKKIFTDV

Substance	thallium flux KV1.1 IC50 (human Kv1.1 (human) [1]) [nM]	Kv1.1 IC50, whole-cell patch clamp (human Kv1.1 (human) [3]) [nM]	Kv1.3 IC50, whole-cell patch clamp (human Kv1.3 (human) [4]) [nM]	further results
KV1C2 (OdK2-Fc fusion)	> 1000			
KV1N2 (OsK1-Fc fusion)	0.1	2		thallium flux KV1.3 IC50 (human Kv1.3 (human) [2]): 0.03 nM; Kv1.1 IC50, patch clamp (human Kv1.1 (human) [3]): 2 nM; Kv1.3 IC50, patch clamp (human Kv1.3 (human) [4]): 0.3 nM
wild type OdK2 peptide			0.1	
wild type OsK1 peptide		0.21	0.01	CD4+ T cell inhibition IC50 (human Kv1.3 (human) [4]): 0.03 nM; CD8+ T cell inhibition IC50 (human Kv1.3 (human) [4]): 0.03 nM
